# Assay results taken from patent US20130115216A1.
# Columns and labels:
# [1] = target: HLA-A2 (HLA-A*0201) (human); assay: assembly assay, HLA-A2 recovery from T2 cell lysate
# [2] = target: HLA-A2 (HLA-A*0201) (human); assay: assembly assay, HLA-A2 recovery from TAP-deficient cell lysate
substance,measurement,setting,value
C1 (HIV-1 pol476-484) (peptide; other documents disagree on this pair),C50,[1],0.7 µM
same,C50,[2],0.2 µM
